Measured values from PMC3343699.
Read-outs that look alike come from different tables or passages of the source. Values belong to the substance of their own block, whether it stands above or below them.

Experiments:
[1] = target: Lys429Cys/Thr463Cys double mutant of the bovine Aα406–483 fragment, first fraction (Fr-1) (bovine); assay: SEC
[2] = target: Lys429Cys/Thr463Cys double mutant of the bovine Aα406–483 fragment, first fraction (Fr-1) (bovine); assay: SEC; remark: listed apart in the source
[3] = target: Lys429Cys/Thr463Cys double mutant of the bovine Aα406–483 fragment, first fraction (Fr-1) (bovine); assay: SEC; remark: listed apart in the source
[4] = target: Recombinant Aα221–391 fragment corresponding to the human fibrinogen αC-connector (human); assay: optical trap-based force spectroscopy
[5] = target: Recombinant Aα392–503 fragment corresponding to the N-terminal subdomain of the human fibrinogen αC-domain (human); assay: optical trap-based force spectroscopy

- oligomers (%) [1]: 12.4%
- oligomers (%) [2]: 31.7%
- oligomers (%) [3]: 5.9%
Substance: Lys429Cys/Thr463Cys double mutant of the bovine Aα406–483 fragment, first fraction (Fr-1) (domain or fragment)

- cumulative binding probability [4]: 46%
- rupture force peak [4]: 26 pN
Substance: Recombinant Aα504–610 fragment corresponding to the C-terminal subdomain of the human fibrinogen αC-domain (domain or fragment)

- cumulative binding probability [4]: 51%
- rupture force peak [4]: 22 pN
Substance: Recombinant Aα392–610 fragment corresponding to the human fibrinogen αC-domain (domain or fragment)

- cumulative binding probability [5]: 67%
- rupture force peak 1 [5]: 16 pN
- rupture force peak 2 [5]: 32 pN
- rupture force peak 3 [5]: 48 pN
Substance: Recombinant Aα392–503 fragment corresponding to the N-terminal subdomain of the human fibrinogen αC-domain (domain or fragment)
